Reference: paper PMC4847776, “Mutagenesis of mNeptune Red-Shifts Emission Spectrum to 681-685 nm” (PLoS ONE, 2016)
Changes are numbered by the printed parent chain.

Assays:
Assay in all cases: SEC; Superdex 200 10/300 GL column, PBS (pH 7.4), protein approximate 3–4 mg/ml; elution volume compared with mNeptune (monomer standard) and eqFP670 (dimer standard)
mNeptune681_Q159F = target: mNeptune681_Q159F
eqFP670 = target: eqFP670
mNeptune681_Q159Y = target: mNeptune681_Q159Y
mNeptune681_Q159C = target: T1, mNeptune681_Q159C; conditions: both partners purified
T1 chain: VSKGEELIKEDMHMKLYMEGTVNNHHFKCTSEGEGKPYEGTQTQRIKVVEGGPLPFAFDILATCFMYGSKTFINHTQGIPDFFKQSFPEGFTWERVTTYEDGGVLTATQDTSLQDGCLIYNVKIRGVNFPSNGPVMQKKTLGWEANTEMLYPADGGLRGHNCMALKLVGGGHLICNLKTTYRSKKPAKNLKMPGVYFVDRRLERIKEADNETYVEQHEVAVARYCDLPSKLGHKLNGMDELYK

mNeptune681_Q159I = target: T2, mNeptune681_Q159I; conditions: both partners purified
T2 chain: T1 chain with C162I

mNeptune681_Q159M = target: T3, mNeptune681_Q159M; conditions: both partners purified
T3 chain: T1 chain with C162M

mNeptune681_Q159V = target: T4, mNeptune681_Q159V; conditions: both partners purified
T4 chain: T1 chain with C162V

mNeptune681_Q159T = target: T5, mNeptune681_Q159T; conditions: both partners purified
T5 chain: T1 chain with C162T

mNeptune681_Q159W = target: T6, mNeptune681_Q159W; conditions: both partners purified
T6 chain: T1 chain with C162W

mNeptune681_Q159L = target: T7, mNeptune681_Q159L; conditions: both partners purified
T7 chain: T1 chain with C162L

mNeptune681_Q159F
stoichiometry N (mNeptune681_Q159F): 2

eqFP670
stoichiometry N (eqFP670): 2

mNeptune681_Q159Y
stoichiometry N (mNeptune681_Q159Y): 2

B1: mNeptune681_Q159C (other)
chain: T1 chain
modifications: autocatalytic Met-Tyr-Gly chromophore / autocatalytic Met-Tyr-Gly chromophore
stoichiometry N (mNeptune681_Q159C): 2

B2: mNeptune681_Q159I (other)
chain: T1 chain with C162I
modifications: autocatalytic Met-Tyr-Gly chromophore / autocatalytic Met-Tyr-Gly chromophore
stoichiometry N (mNeptune681_Q159I): 2

B3: mNeptune681_Q159M (other)
chain: T1 chain with C162M
modifications: autocatalytic Met-Tyr-Gly chromophore / autocatalytic Met-Tyr-Gly chromophore
stoichiometry N (mNeptune681_Q159M): 2

B4: mNeptune681_Q159V (other)
chain: T1 chain with C162V
modifications: autocatalytic Met-Tyr-Gly chromophore / autocatalytic Met-Tyr-Gly chromophore
stoichiometry N (mNeptune681_Q159V): 2

B5: mNeptune681_Q159T (other)
chain: T1 chain with C162T
modifications: autocatalytic Met-Tyr-Gly chromophore / autocatalytic Met-Tyr-Gly chromophore
stoichiometry N (mNeptune681_Q159T): 2

B6: mNeptune681_Q159W (other)
chain: T1 chain with C162W
modifications: autocatalytic Met-Tyr-Gly chromophore / autocatalytic Met-Tyr-Gly chromophore
stoichiometry N (mNeptune681_Q159W): 2

B7: mNeptune681_Q159L (other)
chain: T1 chain with C162L
modifications: autocatalytic Met-Tyr-Gly chromophore / autocatalytic Met-Tyr-Gly chromophore
stoichiometry N (mNeptune681_Q159L): 2
